The target of assay [1] is HLA-A*0301 (human). The experiment in a line: 125I-probe competition, purified HLA.
Assay [2] addresses HLA-A*0301 (human). The assay can be described thus: competition with 125I probe peptide, purified HLA.
Assay [3] concerns the target HLA-A*6802 (human). The assay can be described thus: competition with 125I probe peptide, purified HLA.
Another assay deals with HLA-A*2401 (human). The experiment in a line: inhibition of 125I-labelled standard peptide binding to purified HLA.
A further assay addresses HLA-A2401 (human). The experiment in a line: inhibition of 125I probe peptide binding to purified HLA.
In assay [4] the target is HLA-A*0301 (human). The assay can be described thus: competition vs 125I standard peptide, purified HLA-A*0301.
Assay [5] deals with HLA-A*6802 (human). The assay can be described thus: competition with 125I probe peptide, purified HLA, gel filtration. The note with it: scale: ratio.
Another assay has as its target HLA-A*0203 (human). The experiment in a line: competition with 125I probe peptide, purified HLA.

As a reminder, the IC50 is the concentration at which inhibition is half-maximal.

Turning to “MAGE2 and MAGE3 peptide, position 115, 9 amino acids”, in the assay with HLA-A*0301 (human) [1], the relative binding ratio was determined as 0.0045. For the substance MAGE2.71 11-mer … (peptide), the IC50 in the assay with HLA-A*0301 (human) [2] was 1000 nM. Take MAGE2.112 11-mer … (peptide): in the assay with HLA-A*6802 (human) [3], the half-inhibitory concentration (IC50) worked out at 7690 nM. With “MAGE3 97-105 (position 97, 9 amino acids) (peptide)”, the relative binding ratio (IC50 standard peptide / IC50 test peptide) with HLA-A*2401 (human) is 0.0049. For the substance “MAGE3 142-150 (position 142, 9 amino acids) (peptide)”, the relative binding ratio (IC50 standard peptide / IC50 test peptide) with HLA-A*2401 (human) came out at 0.53.

For “MAGE3 150-160 (position 150, 11 amino acids) (peptide)”, the relative binding ratio (IC50 standard peptide / IC50 test peptide) with HLA-A*2401 (human) was 0.091.

In the case of “MAGE3 195-203 (position 195, 9 amino acids) (peptide)”, in the assay with HLA-A*2401 (human), the relative binding ratio (IC50 standard peptide / IC50 test peptide) stood at 0.42. Still for that read-out and setting: the figure for “MAGE3 195-204 (position 195, 10 amino acids) (peptide)” is 0.05; for “MAGE3 221-231 (position 221, 11 amino acids) (peptide)” it is 0.026.

Turning to “MAGE3 300-307 (position 300, 8 amino acids) (peptide)”, in the assay with HLA-A*2401 (human), the relative binding ratio (IC50 standard peptide / IC50 test peptide) came to 0.042. Same read-out and setting: the figure for “MAGE3 300-309 (position 300, 10 amino acids) (peptide)” is 0.59. In the case of “MAGE3 peptide, position 97, 9 amino acids”, in the assay with HLA-A2401 (human), the relative binding ratio (IC50 standard/IC50 peptide) is 0.0049. Take “MAGE3 peptide, position 115, 9 amino acids”: the relative binding ratio (ratio to standard peptide) in the assay with HLA-A*0301 (human) [4] came out at 0.0045. As for “MAGE3 peptide, position 115, 10 amino acids”, the relative binding ratio (ratio to standard peptide) with HLA-A*0301 (human) [4] turned out to be 0.0066.

In the case of “MAGE3 peptide, position 118, 9 amino acids”, in the assay with HLA-A*0301 (human) [4], the relative binding ratio (ratio to standard peptide) came out at 0.0016. On to “MAGE3 peptide, position 118, 10 amino acids”, for which the relative binding ratio (ratio to standard peptide) with HLA-A*0301 (human) [4] came to 0.0014. With “MAGE3 peptide, position 142, 9 amino acids”, in the assay with HLA-A2401 (human), the relative binding ratio (IC50 standard/IC50 peptide) stood at 0.53. For “MAGE3 peptide, position 150, 11 amino acids”, the relative binding ratio (IC50 standard/IC50 peptide) with HLA-A2401 (human) was found to be 0.091. Take “MAGE3 peptide, position 195, 9 amino acids”: the relative binding ratio (IC50 standard/IC50 peptide) with HLA-A2401 (human) came out at 0.42. Same read-out and setting: as for “MAGE3 peptide, position 195, 10 amino acids”, the figure is 0.05. For the substance “MAGE3 peptide, position 220, 9 amino acids”, in the assay with HLA-A*6802 (human) [5], the relative binding ratio is 0.0012.

For “MAGE3 peptide, position 221, 11 amino acids”, the relative binding ratio (IC50 standard/IC50 peptide) in the assay with HLA-A2401 (human) came to 0.026. Regarding “MAGE3 peptide, position 267, 10 amino acids”, the relative binding ratio (ratio to standard peptide) with HLA-A*0301 (human) [4] was 0.0032. As for “MAGE3 peptide, position 268, 11 amino acids”, in the assay with HLA-A2401 (human), the relative binding ratio (IC50 standard/IC50 peptide) is 0.0004. The same measure, in the same setting: the figure for “MAGE3 peptide, position 270, 9 amino acids” is 0.0006; for “MAGE3 peptide, position 300, 8 amino acids” it is 0.042; for “MAGE3 peptide, position 300, 10 amino acids” it is 0.59. In the case of MAGE3.174 11-mer … (peptide), the values for the IC50 in the assay with HLA-A*6802 (human) [3] and in the assay with HLA-A*0203 (human) were 4490 nM and 769 nM, respectively.

(Values after patent US20040053822A1.)
